# Assay results taken from patent publication US20230279126A1 (published 2023).
# Residue numbers refer to the chain shown, from its start.
# T1: extracellular domain of mouse IL12RB1 (mIL12Rb1 ECD) (mouse, UniProt Q60837 20-565)
# T1 construct: The immunogen was a fusion of the ECD with the human IgG1 hinge and Fc; also called mIL12Rb1 ECD antigen
# T1 sequence: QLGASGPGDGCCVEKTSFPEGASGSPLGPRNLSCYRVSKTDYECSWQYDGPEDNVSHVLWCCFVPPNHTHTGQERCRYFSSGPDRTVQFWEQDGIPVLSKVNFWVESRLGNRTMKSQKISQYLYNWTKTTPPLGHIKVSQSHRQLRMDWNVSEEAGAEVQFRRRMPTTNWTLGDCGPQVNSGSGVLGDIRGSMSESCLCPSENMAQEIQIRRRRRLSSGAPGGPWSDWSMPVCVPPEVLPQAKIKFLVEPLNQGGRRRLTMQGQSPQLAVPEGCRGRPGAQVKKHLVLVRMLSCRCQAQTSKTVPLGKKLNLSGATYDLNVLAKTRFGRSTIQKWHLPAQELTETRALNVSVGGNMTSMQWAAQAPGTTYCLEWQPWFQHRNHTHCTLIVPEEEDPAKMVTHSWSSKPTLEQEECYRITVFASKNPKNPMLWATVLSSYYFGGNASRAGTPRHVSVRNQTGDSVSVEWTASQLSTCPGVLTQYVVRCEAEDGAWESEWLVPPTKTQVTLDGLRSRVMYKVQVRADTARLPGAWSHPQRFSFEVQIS
# T2: extracellular domain of human IL23R (hIL23R ECD) (human, UniProt Q5VWK5 24-355)
# T2 construct: The immunogen was an ECD-human IgG1 hinge-Fc fusion
# T2 sequence: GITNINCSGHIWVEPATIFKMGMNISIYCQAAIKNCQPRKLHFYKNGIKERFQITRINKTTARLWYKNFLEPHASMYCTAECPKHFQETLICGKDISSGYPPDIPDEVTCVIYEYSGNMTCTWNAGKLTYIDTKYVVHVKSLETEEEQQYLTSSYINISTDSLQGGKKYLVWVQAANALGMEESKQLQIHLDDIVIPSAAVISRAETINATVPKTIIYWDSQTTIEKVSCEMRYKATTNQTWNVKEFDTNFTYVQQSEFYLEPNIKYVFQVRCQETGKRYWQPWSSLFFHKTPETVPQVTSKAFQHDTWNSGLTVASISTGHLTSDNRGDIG
# B1: mIL12Rb1_VHH15 (VHH)
# VHH: QVQLQESGGGSVQAGGFLRLSCVASGYGYCGYDMSWYRQVPGKEREFVALITSDRSVSYEDSVKGRFSISRDNAKNTAYLEMNRLTPDDTAVYYCKTSTAARENNWCRSRYRIAYWGQGTQVTVSS
# notes: Phagemid clone with his-tag, periplasmic extract
# B2: mIL12Rb1_VHH20 (VHH)
# VHH: QVQLQESGGGSVQAGGSLRLSCVASGYGYCGYDMSWYRQTPGKEREFVALITSDRIASYEDSVKGRFIISRDNAKNTGYLDMTRVTPDDTAIYYCKTSAAARENSWCRSRYRVASWGQGTQVTVSS
# notes: as for B1
# B3: mIL12Rb1_VHH9 (VHH)
# VHH: B2 VHH with T40A, I56S, A57I, G65A, K75A, V85L, N104S
# notes: as for B1
# B4: mIL12Rb1_VHH10 (VHH)
# VHH: QVQLQESGGGSVQAGGSLRLSCAVSGYDYCGYDVRWYRQAPGKEREFVSGIDSDGSTSYADSVKGRFTISQDNAENTSYLHMFSLKPEDTAMYYCKTESPAGESAWCRNFRGMDYWGKGTQVTVSS
# notes: as for B1
# B5: mIL12Rb1_VHH11 (VHH)
# VHH: QVQLQESGGGSVQAGGSLRLSCVASGYSYCGYDMMWYRQAPGKEREFVALITSDYSIRYEDSVEGRFSISRDNAKNTGYLLMSNLTPADTAIYYCKTSTAARESSWCRSRYRVASWGQGTQVTVSS
# notes: as for B1
# B6: hIL23R_VHH1 (VHH)
# VHH: QVQLQESGGGSVQAGGSLRLSCAASGYTYCSYDMSWYRQAPGKKREFVSAFNSDGTTSYADSVKGRFTISQDKAKNTVYLQMNSLKPEDTAMYYCKTDPHVQSSGGYCPPYWGQGTQVTVSS
# notes: as for B1
# B7: hIL23R_VHH5 (VHH)
# VHH: B6 VHH with F51I, N52A, T56S, V63L, K73N
# notes: as for B1
# B8: hIL23R_VHH2 (VHH)
# VHH: QVQLQESGGGSVQAGGSLRLSCAASGYTYCSYDMSWYRQAPGKKREFVSSFNSDGSTSYADSVKGRFTISQDNAKNTVYLQMNSLKPEDTAMYYCKTDPHADWGAPCGGDYWGQGTQVTVSS
# notes: as for B1
# B9: hIL23R_VHH4 (VHH)
# VHH: B8 VHH with Y27S, S31T, S35T, K44R, S50A, F51I, H100N, A101S, D102G
# notes: as for B1
# B10: hIL23R_VHH3 (VHH)
# VHH: QVQLQESGGGSVQAGESLRLSCAASGYTYCTYDMTWYRQAPGKKREFVSGIHSDGTTSYADSVKGRFTISQDNAENTVYLQMNSLKPEDTAMYYCKTDPIATITRRCDSYWGQGTQVTVSS
# notes: as for B1
# B11: hIL23R_VHH6 (VHH)
# VHH: QVQLQESGGGLVQPGGSLRLSCAASGYTYCSYDMGWYRQAPGKKRKFVSSINSDGTTSYADSVKGRFTISQDNAKNTVYLQMNSLKPEDTAMYYCKTDPQTRPGKPCADYWGQGTQVTVSS
# notes: as for B1
# B12: hIL23R_VHH9 (VHH)
# VHH: B11 VHH with P14A, G35S, K44E
# notes: as for B1
# B13: hIL23R_VHH10 (VHH)
# VHH: QVQLQESGGGSVQAGGSLKLSCAASGYTYCNYDIAWYRQAPGKERKFVSAIASDGSTSYADSVKGRFTISQDNAKNTVYLQMNSLKPEDTAMYYCKTDPIATMTRRCDPYWGQGTQVTVSS
# notes: as for B1
# B14: hIL23R_VHH7 (VHH)
# VHH: B13 VHH with K19R, S56I, A101S, M103I, R106I
# notes: as for B1
# B15: hIL23R_VHH11 (VHH)
# VHH: B10 VHH with E16G, T31S, G50A, H52D, T56S, E75K, T104S
# notes: as for B1
# B16: hIL23R_VHH16 (VHH)
# VHH: B13 VHH with Q13E, S17A, K19T, A23V
# notes: as for B1
# B17: hIL23R_VHH18 (VHH)
# VHH: B13 VHH with K19R, S21A
# notes: as for B1
# B18: hIL23R_VHH13 (VHH)
# VHH: QVQLQESGGGSVQAGGSLRLSCAASGYTYCSYDMKWYRQAPGKKREFVSAIDSDGSTSYADSVKGRFTISQDNAKNTVYLQMNSLKPEDTAMYYCKTEGTIPVGVCPNYWGQGTQVTVSS
# notes: as for B1
# B19: hIL23R_VHH8 (VHH)
# VHH: B18 VHH with G10D, K44E, A50G, T57I, V105A
# notes: as for B1
# B20: hIL23R_VHH14 (VHH)
# VHH: B18 VHH with S11L, A14P, I101V
# notes: as for B1
# B21: hIL23R_VHH12 (VHH)
# VHH: QVQLQESGGGSVQAGGSLRLSCAASGYTSSSRCMGWFRQAPGKEREGVARIYTPTRTTWYADSVKGRFTISQDNAKNTVYLEMASLKPEDTAKYFCAAGASCAVDLFSYWGQGTQVTVSS
# notes: as for B1
# B22: hIL23R_VHH15 (VHH)
# VHH: QVQLQESGGGSVQAGGSLRLSCAASPGTYTSRYMGWFRQAPGKEREGVATIWPAGGNTVYADSVKGRFTISQDGAKKTVYLQMNSLKPEDTAMYYCAAAKYGGTSLAPYTYNYWGQGTQVTVSS
# notes: as for B1
# B23: hIL23R_VHH17 (VHH)
# VHH: QVQLQESGGGSVQAGGSLRLSCTASGYTFSTMKYMGWFRQAPGKEREGVAAIWIAAGNTYYADSVKGRFTISQDNTKNTVYLQMNSLKPEDTALYYCAAARYGFVPSTWYLPERYNYWGQGTQVTVSS
# notes: as for B1
# B24: hIL23R_VHH19 (VHH)
# VHH: QVQLQESGGGSVQAGGSLRLSCAASGYTSCSYDMSWYRQAPGKKREFVSAIHSDGTTSYADSMKGRFTISQDNAKNTVYLQMNSLKPEDTAMYYCKTDPNYSDHVCPPYWGRGTQVTVSS
# notes: as for B1
# Tests used:
# [1] = molecular target: T1, extracellular domain of mouse IL12RB1 …; assay: periplasmic extract ELISA (PE-ELISA) of phage clones, colorimetric
# Outline: (§1)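 VHH domains came from camels immunized in sequence with human and mouse receptor extracellular domain–human IgG1 hinge–Fc fusion proteins. Blood RNA was transcribed, and the approximately 400 bp VHH fragment was cloned in frame with a his-tag into a phagemid in E. coli. The phage library went through multiple rounds of biopanning on the human or mouse extracellular domain. Individual clones were tested by periplasmic extract ELISA in 96-well plates, with selective binding read colorimetrically.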
# [2] = molecular target: T2, extracellular domain of human IL23R …; assay: as above
# Outline: as §1
Binder,binding result [1],binding result [2]
B1,binds,
B2,binds,
B3,binds,
B4,binds,
B5,binds,
B6,,binds
B7,,binds
B8,,binds
B9,,binds
B10,,binds
B11,,binds
B12,,binds
B13,,binds
B14,,binds
B15,,binds
B16,,binds
B17,,binds
B18,,binds
B19,,binds
B20,,binds
B21,,binds
B22,,binds
B23,,binds
B24,,binds
